Laboratory results reported in the supplement of paper PMC9876800.

Test system: peptide library, one residue held at a place counted from the S/T acceptor
Assay: relative phosphorylation of the sub-library (ratio to the mean residue at this position); human; higher = residue favoured
How it was run: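 Spots on streptavidin membranes were phosphorimaged and quantified by densitometry to measure phosphorylation of biotinylated degenerate peptide sub-libraries by purified recombinant kinases, human or orthologue constructs. The reactions ran in 384-well plates for 90 min under kinase-specific conditions, with peptides at 50 μM and 50 μM ATP spiked with γ-32P-ATP. Relative sub-library phosphorylation is the ratio to the mean residue at that position.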

Chain of SLK, construct: Full length (Q9H2G2 whole entry, looked up): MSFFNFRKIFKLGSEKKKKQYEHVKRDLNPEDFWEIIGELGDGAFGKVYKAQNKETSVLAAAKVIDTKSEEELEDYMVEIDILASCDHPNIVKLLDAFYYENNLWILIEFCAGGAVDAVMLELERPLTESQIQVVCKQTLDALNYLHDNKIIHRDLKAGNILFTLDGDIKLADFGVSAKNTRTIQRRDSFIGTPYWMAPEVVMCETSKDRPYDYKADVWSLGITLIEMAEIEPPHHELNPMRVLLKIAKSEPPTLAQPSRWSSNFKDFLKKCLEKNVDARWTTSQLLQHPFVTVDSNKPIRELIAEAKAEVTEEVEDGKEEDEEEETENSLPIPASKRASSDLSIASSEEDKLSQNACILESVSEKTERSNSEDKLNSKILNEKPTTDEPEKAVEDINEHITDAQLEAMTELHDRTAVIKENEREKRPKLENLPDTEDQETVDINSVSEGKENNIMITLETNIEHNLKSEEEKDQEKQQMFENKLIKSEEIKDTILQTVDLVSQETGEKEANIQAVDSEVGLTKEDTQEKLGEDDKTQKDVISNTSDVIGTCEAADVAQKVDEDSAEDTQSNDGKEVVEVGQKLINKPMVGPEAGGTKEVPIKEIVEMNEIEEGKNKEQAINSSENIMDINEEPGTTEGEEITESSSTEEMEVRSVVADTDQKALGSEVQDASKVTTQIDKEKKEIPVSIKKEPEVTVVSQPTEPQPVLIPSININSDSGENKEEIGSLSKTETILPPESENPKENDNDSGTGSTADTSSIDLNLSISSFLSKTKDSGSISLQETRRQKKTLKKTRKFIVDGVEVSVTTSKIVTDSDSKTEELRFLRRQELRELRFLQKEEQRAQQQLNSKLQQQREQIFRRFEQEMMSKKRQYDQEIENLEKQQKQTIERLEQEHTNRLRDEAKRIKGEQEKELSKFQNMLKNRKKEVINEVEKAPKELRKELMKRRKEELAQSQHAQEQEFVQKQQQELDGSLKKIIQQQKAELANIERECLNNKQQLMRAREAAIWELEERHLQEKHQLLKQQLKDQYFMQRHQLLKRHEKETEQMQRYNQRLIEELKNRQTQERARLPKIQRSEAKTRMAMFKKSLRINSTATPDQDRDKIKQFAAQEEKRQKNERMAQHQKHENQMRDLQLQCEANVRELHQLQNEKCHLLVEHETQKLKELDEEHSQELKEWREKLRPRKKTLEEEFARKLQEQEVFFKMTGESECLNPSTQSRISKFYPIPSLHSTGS
Chain of PAK2, construct: aa3-end (Q13177 3-524, looked up): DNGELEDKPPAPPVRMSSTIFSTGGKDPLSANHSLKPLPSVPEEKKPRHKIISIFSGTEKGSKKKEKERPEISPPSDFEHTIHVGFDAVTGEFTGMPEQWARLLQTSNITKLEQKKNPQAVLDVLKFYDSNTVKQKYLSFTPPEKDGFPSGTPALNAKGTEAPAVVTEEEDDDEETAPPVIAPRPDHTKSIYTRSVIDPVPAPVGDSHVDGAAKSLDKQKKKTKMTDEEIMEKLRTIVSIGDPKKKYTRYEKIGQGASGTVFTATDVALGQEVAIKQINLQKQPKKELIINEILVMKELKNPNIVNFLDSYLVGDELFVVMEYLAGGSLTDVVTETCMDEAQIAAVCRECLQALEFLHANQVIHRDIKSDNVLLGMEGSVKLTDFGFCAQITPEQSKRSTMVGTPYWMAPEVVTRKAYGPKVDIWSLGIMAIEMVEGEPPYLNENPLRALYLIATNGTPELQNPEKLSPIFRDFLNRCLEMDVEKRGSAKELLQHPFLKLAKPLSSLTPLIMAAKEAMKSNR

SLK, construct: Full length (from UniProt Q9H2G2)
relative phosphorylation
Conditions | at +1 | at +2 | at +3 | at +4 | at -1 | at -2 | at -3 | at -4 | at -5
A fixed | 0.368 | 0.647 | 0.652 | 0.778 | 0.576 | 0.458 | 0.681 | 1.05 | 1.07
D fixed | 0.242 | 0.669 | 0.58 | 1.14 | 0.484 | 0.531 | 0.8 | 1.09 | 1.57
E fixed | 0.198 | 0.358 | 0.515 | 0.774 | 0.33 | 0.306 | 0.686 | 1.08 | 1
F fixed | 1.23 | 0.482 | 0.699 | 0.768 | 0.781 | 2.5 | 0.948 | 0.894 | 0.915
G fixed | 0.428 | 0.917 | 1.01 | 1.04 | 0.478 | 0.424 | 0.641 | 1.2 | 1.06
H fixed | 0.835 | 1.38 | 1.13 | 1.15 | 1.16 | 0.848 | 1.14 | 1.04 | 1.2
I fixed | 1.39 | 0.349 | 0.454 | 0.648 | 0.287 | 0.263 | 0.314 | 0.6 | 0.552
K fixed | 1.24 | 2.1 | 2.23 | 1.47 | 3.28 | 1.41 | 2.4 | 1.06 | 1.48
L fixed | 2.29 | 0.478 | 0.632 | 0.8 | 0.881 | 0.357 | 0.386 | 0.706 | 0.617
M fixed | 2.25 | 0.614 | 0.61 | 0.801 | 0.904 | 0.568 | 0.565 | 0.747 | 0.691
N fixed | 0.877 | 1.22 | 1.27 | 1.04 | 1.59 | 0.737 | 1.11 | 0.85 | 1.21
P fixed | 0.399 | 1.22 | 1.89 | 1.47 | 0.756 | 0.613 | 1 | 1.68 | 0.872
Q fixed | 0.818 | 1.04 | 0.918 | 1.22 | 1.27 | 0.604 | 1.01 | 0.918 | 0.744
R fixed | 1.11 | 3.74 | 2.14 | 1.45 | 1.68 | 1.13 | 1.79 | 1.11 | 1.31
V fixed | 0.673 | 0.445 | 0.514 | 0.598 | 0.35 | 0.306 | 0.326 | 0.688 | 0.716
W fixed | 1.49 | 0.745 | 0.911 | 1.04 | 0.781 | 0.862 | 1.95 | 1.36 | 1.12
Y fixed | 1.16 | 0.599 | 0.844 | 0.81 | 1.41 | 5.07 | 1.26 | 0.95 | 0.872
pThr fixed | 0.61 | 1 | 0.916 | 0.839 | 0.431 | 0.525 | 0.878 | 1.28 | 1.27
pTyr fixed | 0.455 | 0.581 | 0.811 | 0.641 | 0.392 | 0.921 | 1.16 | 1.07 | 1.03

PAK2, construct: aa3-end (from UniProt Q13177)
relative phosphorylation
Conditions | at +1 | at +2 | at +3 | at +4 | at -1 | at -2 | at -3 | at -4 | at -5
A fixed | 0.794 | 0.823 | 0.781 | 0.846 | 0.808 | 0.606 | 0.786 | 0.97 | 1.05
D fixed | 0.359 | 0.391 | 0.855 | 0.98 | 0.562 | 0.197 | 0.506 | 0.844 | 0.724
E fixed | 0.432 | 0.37 | 0.921 | 0.988 | 0.522 | 0.222 | 0.469 | 0.891 | 0.602
F fixed | 1.18 | 1.76 | 1.77 | 0.95 | 0.956 | 0.464 | 0.699 | 0.729 | 0.803
G fixed | 0.916 | 0.643 | 0.868 | 1.01 | 0.668 | 0.479 | 0.891 | 1.06 | 1.2
H fixed | 0.997 | 1.4 | 1.14 | 1.07 | 1.29 | 1.44 | 1.2 | 1.09 | 1.16
I fixed | 1.22 | 1.22 | 1.03 | 0.87 | 0.796 | 0.606 | 0.583 | 0.673 | 0.741
K fixed | 1.01 | 0.452 | 0.623 | 0.938 | 1.41 | 1.12 | 1.78 | 1.58 | 1.81
L fixed | 1.16 | 1.37 | 1.13 | 1.02 | 1.18 | 0.391 | 0.561 | 0.729 | 0.707
M fixed | 1.64 | 1.14 | 1.07 | 1.07 | 1.17 | 0.416 | 0.599 | 0.885 | 0.672
N fixed | 0.738 | 0.734 | 0.847 | 1.22 | 1.07 | 0.503 | 0.977 | 1.02 | 1.04
P fixed | 0.222 | 0.625 | 0.903 | 1.38 | 0.723 | 0.935 | 0.894 | 0.944 | 0.926
Q fixed | 1.06 | 0.797 | 0.754 | 1.08 | 1.08 | 0.572 | 0.827 | 0.901 | 0.889
R fixed | 1.19 | 0.658 | 0.657 | 0.821 | 1.72 | 7.1 | 3.91 | 2.26 | 2.31
V fixed | 1.2 | 1.01 | 0.906 | 0.787 | 0.763 | 0.642 | 0.557 | 0.688 | 0.694
W fixed | 1.65 | 1.18 | 1.33 | 1.15 | 1.03 | 0.485 | 0.954 | 0.887 | 0.801
Y fixed | 1.23 | 2.42 | 1.42 | 0.824 | 1.25 | 0.821 | 0.801 | 0.84 | 0.858
pThr fixed | 0.66 | 0.551 | 0.597 | 1.12 | 0.392 | 0.495 | 0.74 | 1.04 | 0.931
pTyr fixed | 0.822 | 2.1 | 1.11 | 0.856 | 0.652 | 0.379 | 0.8 | 0.71 | 0.876
